Reference: patent US9964541B2, “Method and devices for capturing circulating tumor” (THE BOARD OF TRUSTEES OF THE UNIVERSITY OF ILLINOIS, priority 2009, dated 2018)

Tested on: P-selectin antibody
Assay: SPR antibody binding to oriented versus randomly immobilized P-selectin
Conditions: 20 μg/mL P-selectin antibody, 20 μL/min; compared to randomly immobilized P-selectin, comparable amounts immobilized
Experimental: Enhanced controllability of surfaces by covalent immobilization: Previously, we have shown the surfaces with covalently immobilized P-selectin present enhanced functional stability by approximately 10 times, as compared to those with physisorbed P-selectin. The surface stability was assessed using cell-mimicking microspheres as well as live neutrophils. We also developed immobilization chemistries (as shown FIG. 5) on gold coated, […] PEGylated surfaces to employ the flow-based SPR technique that quantitatively analyze the surface functions, offering: 1) easy surface functionalization using thiol chemistries due to the presence of a gold layer and 2) quantitative and real time monitoring of binding events without any modification of analytes. Thus, the SPR technique is useful particularly for determining controllability of density and orientation of P-selectin. The chemistries described in FIG. 5 were developed to achieve non-fouling surfaces and to provide reactive sites for subsequent P-selectin immobilization using oligo(ethylene glycol)-alkanethiols (Prochimia, Poland) on gold coated SPR chips. Briefly, the gold chip surface was cleaned before the subsequent formation of mixed self assembled monolayers (SAMs) by washing with absolute ethanol and drying by nitrogen blowing. […]

antibody binding response: significantly greater binding response
B1: oriented P-selectin: P-selectin biotinylated at its single cysteine, immobilized through biotin-streptavidin binding on OEG-biotin SAM (protein, UniProt P16109 42-830, looked up)
P-selectin: WTYHYSTKAYSWNISRKYCQNRYTDLVAIQNKNEIDYLNKVLPYYSSYYWIGIRKNNKTWTWVGTKKALTNEAENWADNEPNNKRNNEDCVEIYIKSPSAPGKWNDEHCLKKKHALCYTASCQDMSCSKQGECLETIGNYTCSCYPGFYGPECEYVRECGELELPQHVLMNCSHPLGNFSFNSQCSFHCTDGYQVNGPSKLECLASGIWTNKPPQCLAAQCPPLKIPERGNMTCLHSAKAFQHQSSCSFSCEEGFALVGPEVVQCTASGVWTAPAPVCKAVQCQHLEAPSEGTMDCVHPLTAFAYGSSCKFECQPGYRVRGLDMLRCIDSGHWSAPLPTCEAISCEPLESPVHGSMDCSPSLRAFQYDTNCSFRCAEGFMLRGADIVRCDNLGQWTAPAPVCQALQCQDLPVPNEARVNCSHPFGAFRYQSVCSFTCNEGLLLVGASVLQCLATGNWNSVPPECQAIPCTPLLSPQNGTMTCVQPLGSSSYKSTCQFICDEGYSLSGPERLDCTRSGRWTDSPPMCEAIKCPELFAPEQGSLDCSDTRGEFNVGSTCHFSCDNGFKLEGPNNVECTTSGRWSATPPTCKGIASLPTPGVQCPALTTPGQGTMYCRHHPGTFGFNTTCYFGCNAGFTLIGDSTLSCRPSGQWTAVTPACRAVKCSELHVNKPIAMNCSNLWGNFSYGSICSFHCLEGQLLNGSAQTACQENGHWSTTVPTCQAGPLTIQEALTYFGGAVASTIGLIMGGTLLALLRKRFRQKDDGKCPLNPHSHLGTYGVFTNAAFDPSP
modifications: biotinylated at cysteine
